Experimental data: patent US20230220080A1 (EPIMAB BIOTHERAPEUTICS, published 2023)
Values belong to the binder of their own block, whether it stands above or below them.

Legend:
[1] = target: T1, hFactor X (Enzyme Research Laboratory) (human, UniProt P00742 41-488, limits assumed); experiment: SPR Biacore X100, Ig captured by anti-Fc, 500 nM antigen
T1 construct: also called FX
Description: (§1) Affinity measurement by surface plasmon resonance: The kinetics of FIT-Ig binding to hFactor IX and hFactor X (Enzyme Research Laboratory) was determined by surface plasmon resonance with a Biacore X100 instrument (Biacore AB, Uppsala, Sweden) using HBS-EP (10 mM HEPES, pH 7.4, 150 mM NaCl, 3 mM EDTA, and 0.005% surfactant P20) at 25° C. Briefly, goat anti-human IgG Fc fragment specific polyclonal antibody (Pierce Biotechnology Inc, Rockford, Ill.) was directly immobilized across a CM5 research grade biosensor chip using a standard amine coupling kit according to manufacturer's instructions. Purified FIT-Ig samples were diluted in HEPES-buffered saline for capture across goat anti-human IgG Fc specific reaction surfaces and injected over reaction matrices at a flow rate of 5 μl/min. The association and dissociation rate constants, kon (M-1s-1) and koff (s-1) were determined under a continuous flow rate of 30 μL/min. Rate constants were derived by making kinetic binding measurements at 500 nM antigen concentrations. The equilibrium dissociation constant (M) of the reaction between FIT-Ig and the target proteins was then calculated from the kinetic rate constants by the following formula: KD=koff/kon. Aliquots of antigen samples were also simultaneously injected over a blank reference and reaction CM surface to record and subtract any nonspecific binding background to eliminate the majority of the refractive index change and injection noise. Surfaces were regenerated with two subsequent 25 ml injections of 10 mM Glycine (pH 1.5) at a flow rate of 10 μL/min. The anti-Fc antibody immobilized surfaces were completely regenerated and retained their full capture capacity over twelve cycles.

[2] = target: T2, hFactor IX (Enzyme Research Laboratory) (human, UniProt P00740 47-461); experiment: as above
T2 construct: also called FIX
Description: as §1

Factor IXa = Factor IXa (UniProt P00740 47-461, limits assumed); experiment: method not stated
recombinant human IL-20 [3] = target: T3, recombinant human IL-20 (human, UniProt Q9NYY1 25-176); experiment: SPR Biacore, Ig captured by anti-Fc, antigen injected
T3 construct: also called rhIL-20; hIL-20
T3 sequence (looked up): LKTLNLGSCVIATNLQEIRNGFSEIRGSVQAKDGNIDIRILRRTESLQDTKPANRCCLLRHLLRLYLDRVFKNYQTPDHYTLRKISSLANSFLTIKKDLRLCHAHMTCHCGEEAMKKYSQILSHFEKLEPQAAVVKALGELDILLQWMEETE
Description: (§2) The kinetics of FIT-Ig binding to rhIL-17 and rhIL-20 was determined by surface plasmon resonance (Table 5) with a Biacore X100 instrument (Biacore AB, Uppsala, Sweden) using HBS-EP (10 mM HEPES, pH 7.4, 150 mM NaCl, 3 mM EDTA, and 0.005% surfactant P20) at 25° C. Briefly, goat anti-human IgG Fcγ fragment specific polyclonal antibody (Pierce Biotechnology Inc, Rockford, Ill.) was directly immobilized across a CM5 research grade biosensor chip using a standard amine coupling kit according to manufacturer's instructions. Purified FIT-Ig samples were diluted in HEPES-buffered saline for capture across goat anti-human IgG Fc specific reaction surfaces and injected over reaction matrices at a flow rate of 5 μl/min. The association and dissociation rate constants, kon (M-1s-1) and koff (s-1) were determined under a continuous flow rate of 30 μL/min. […] The equilibrium dissociation constant (M) of the reaction between FIT-Ig and the target proteins was then calculated from the kinetic rate constants by the following formula: KD=koff/kon. Aliquots of antigen samples were also simultaneously injected over a blank reference and reaction CM surface to record and subtract any nonspecific binding background to eliminate the majority of the refractive index change and injection noise. Surfaces were regenerated with two subsequent 25 ml injections of 10 mM Glycine (pH 1.5) at a flow rate of 10 μL/min.

recombinant human IL-17 [4] = target: T4, recombinant human IL-17 (human, UniProt Q16552 24-155); experiment: as above
T4 construct: also called rhIL-17; hIL-17
T4 sequence (Q16552 24-155 limits assumed): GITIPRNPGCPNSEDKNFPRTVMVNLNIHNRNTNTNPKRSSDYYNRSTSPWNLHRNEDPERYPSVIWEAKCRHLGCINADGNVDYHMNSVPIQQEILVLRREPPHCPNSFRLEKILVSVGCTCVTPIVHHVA
Description: as §2

recombinant human IL-20 [5] = target: T3, recombinant human IL-20; experiment: cell-based or functional assay
recombinant human IL-17 [6] = target: T4, recombinant human IL-17; experiment: cell-based or functional assay

B2: FIT14-Ig Factor IXa/Factor X (bispecific antibody, human IgG4 S228P, kappa)
chain 1: DIQMTQSPSSLSASVGDRVTITCKASRNIERQLAWYQQKPGQAPELLIYQASRKESGVPDRFSGSRYGTDFTLTISSLQPEDIATYYCQQYSDPPLTFGGGTKVEIKRTVAAPSVFIFPPSDEQLKSGTASVVCLLNNFYPREAKVQWKVDNALQSGNSQESVTEQDSKDSTYSLSSTLTLSKADYEKHKVYACEVTHQGLSSPVTKSFNRGECQVQLVQSGSELKKPGASVKVSCKASGYTFTDNNMDWVRQAPGQGLEWMGDINTRSGGSIYNEEFQDRVIMTVDKSTDTAYMELSSLRSEDTATYHCARRKSYGYYLDEWGEGTLVTVSSASTKGPSVFPLAPCSRSTSESTAALGCLVKDYFPEPVTVSWNSGALTSGVHTFPAVLQSSGLYSLSSVVTVPSSSLGTQTYTCNVDHKPSNTKVDKRVESKYGPPCPPCPAPEFLGGPSVFLFPPKPKDTLMISRTPEVTCVVVDVSQEDPEVQFNWYVDGVEVHNAKTKPREEQYNSTYRVVSVLTVLHQDWLNGKEYKCKVSNKGLPSSIEKTISKAKGQPREPQVYTLPPSQEEMTKNQVSLTCLVKGFYPSDIAVEWESNGQPENNYKTTPPVLDSDGSFFLYSKLTVDKSRWQEGNVFSCSVMHEALHNHYTQESLSLSP
chain 2: QVQLVESGGGLVQPGGSLRLSCAASGFTFSYYDIQWVRQAPGKGLEWVSSISPSGQSTYYRREVKGRFTISRDNSKNTLYLQMNSLRAEDTAVYYCARRTGREYGGGWYFDYWGQGTLVTVSSASTKGPSVFPLAPSSKSTSGGTAALGCLVKDYFPEPVTVSWNSGALTSGVHTFPAVLQSSGLYSLSSVVTVPSSSLGTQTYICNVNHKPSNTKVDKKVEPKSC
chain 3: DIQMTQSPSSLSASVGDRVTITCKASRNIERQLAWYQQKPGQAPELLIYQASRKESGVPDRFSGSRYGTDFTLTISSLQPEDIATYYCQQYSDPPLTFGGGTKVEIKRTVAAPSVFIFPPSDEQLKSGTASVVCLLNNFYPREAKVQWKVDNALQSGNSQESVTEQDSKDSTYSLSSTLTLSKADYEKHKVYACEVTHQGLSSPVTKSFNRGEC
notes: leader left out; also called FIT-Ig 014; FIT-Ig 14
Kd (Factor IXa): 9.9 nM

B3: Anti-IL-17/IL-20 FIT1-Ig (bispecific antibody, human IgG1, kappa)
chain 1: not shown
chain 2: QVQLVQSGAEVKKPGSSVKVSCKASGYSFTDYHIHWVRQAPGQGLEWMGVINPMYGTTDYNQRFKGRVTITADESTSTAYMELSSLRSEDTAVYYCARYDYFTGTGVYWGQGTLVTVSSASTKGPSVFPLAPSSKSTSGGTAALGCLVKDYFPEPVTVSWNSGALTSGVHTFPAVLQSSGLYSLSSVVTVPSSSLGTQTYICNVNHKPSNTKVDKKVEPKSC
chain 3: not shown
notes: three-polypeptide FIT-Ig, no linker, human IgG1 Fc; described as tetravalent, so two copies of each chain
Kd (recombinant human IL-20 [3]): 0.0273 nM
koff (recombinant human IL-20 [3]): 3.82e-05 s⁻¹
kon (recombinant human IL-20 [3]): 1.4e+06 M⁻¹ s⁻¹
Kd (recombinant human IL-17 [4]): 0.00364 nM
koff (recombinant human IL-17 [4]): 3.88e-05 s⁻¹
kon (recombinant human IL-17 [4]): 1.07e+07 M⁻¹ s⁻¹
Neutralization Potency IC50 (IL-20R+ BAF3 cell proliferation) (recombinant human IL-20 [5]): 0.054 nM
Neutralization Potency IC50 (GROα production by Hs27 cells) (recombinant human IL-17 [6]): 0.102 nM

B4: Anti-IL-17/IL-20 FIT3-Ig (bispecific antibody, human IgG1, kappa)
chain 1: not shown
chain 2: B3 chain 2
chain 3: not shown
notes: three-polypeptide FIT-Ig with GGGGSGS linker; tetravalent
Kd (recombinant human IL-20 [3]): 0.0273 nM
koff (recombinant human IL-20 [3]): 3.82e-05 s⁻¹
kon (recombinant human IL-20 [3]): 1.4e+06 M⁻¹ s⁻¹
Kd (recombinant human IL-17 [4]): 0.0011 nM
koff (recombinant human IL-17 [4]): 9.58e-06 s⁻¹
kon (recombinant human IL-17 [4]): 8.71e+06 M⁻¹ s⁻¹
Neutralization Potency IC50 (IL-20R+ BAF3 cell proliferation) (recombinant human IL-20 [5]): 0.072 nM
Neutralization Potency IC50 (GROα production by Hs27 cells) (recombinant human IL-17 [6]): 0.146 nM

B5: Anti-IL-17/IL-20 FIT2-Ig (bispecific antibody, human IgG1, kappa)
chain 1: not shown
chain 2: B3 chain 2
chain 3: not shown
notes: three-polypeptide FIT-Ig with GSG linker; tetravalent
Kd (recombinant human IL-20 [3]): 0.0195 nM
koff (recombinant human IL-20 [3]): 3.5e-05 s⁻¹
kon (recombinant human IL-20 [3]): 1.8e+06 M⁻¹ s⁻¹
Kd (recombinant human IL-17 [4]): 0.00165 nM
koff (recombinant human IL-17 [4]): 1.53e-05 s⁻¹
kon (recombinant human IL-17 [4]): 9.24e+06 M⁻¹ s⁻¹
Neutralization Potency IC50 (IL-20R+ BAF3 cell proliferation) (recombinant human IL-20 [5]): 0.05 nM
Neutralization Potency IC50 (GROα production by Hs27 cells) (recombinant human IL-17 [6]): 0.137 nM

Second part, the binder after the results:

Kd [1]: 10 nM
koff [1]: 0.000776 s⁻¹
kon [1]: 77500 M⁻¹ s⁻¹
Kd [2]: 9.91 nM
koff [2]: 0.000332 s⁻¹
kon [2]: 33500 M⁻¹ s⁻¹
B1: FIT014a Factor IX (Factor IX Ab)/Factor X (Factor X Ab) (bispecific antibody, human IgG4 S228P, kappa)
chain 1: B2 chain 1
chain 2: B2 chain 2
chain 3: B2 chain 3
notes: leader left out; also called FIT-Ig 014a

Kd (Factor IXa): 13 nM
kon (Factor IXa): 27400 M⁻¹ s⁻¹
Kd [2]: 13 nM
koff [2]: 0.000355 s⁻¹
kon [2]: 27400 M⁻¹ s⁻¹
B6: Factor IXa mAb (antibody, V domains shown)
VH: QVQLVESGGGLVQPGGSLRLSCAASGFTFSYYDIQWVRQAPGKGLEWVSSISPSGQSTYYRREVKGRFTISRDNSKNTLYLQMNSLRAEDTAVYYCARRTGREYGGGWYFDYWGQGTLVTVSS
VL: DIQMTQSPSSLSASVGDRVTITCKASRNIERQLAWYQQKPGQAPELLIYQASRKESGVPDRFSGSRYGTDFTLTISSLQPEDIATYYCQQYSDPPLTFGGGTKVEIK
notes: parental mAb; also called Factor IX mAb; mAb FIX

Kd [1]: 45.1 nM
koff [1]: 0.00142 s⁻¹
kon [1]: 31500 M⁻¹ s⁻¹
B7: Factor X mAb (antibody, V domains shown)
VH: QVQLVQSGSELKKPGASVKVSCKASGYTFTDNNMDWVRQAPGQGLEWMGDINTRSGGSIYNEEFQDRVIMTVDKSTDTAYMELSSLRSEDTATYHCARRKSYGYYLDEWGEGTLVTVSS
VL: B6 VL
notes: parental mAb; also called mAb FX; Factor X Ab

Kd (recombinant human IL-20 [3]): 0.05 nM
koff (recombinant human IL-20 [3]): 8.3e-05 s⁻¹
kon (recombinant human IL-20 [3]): 1.7e+06 M⁻¹ s⁻¹
Neutralization Potency IC50 (IL-20R+ BAF3 cell proliferation) (recombinant human IL-20 [5]): 0.05 nM
B8: anti-hIL-20 mAb (clone 15D2) (antibody, V domains shown)
VH: QVQLVQSGAEVKRPGASVKVSCKASGYTFTNDIIHWVRQAPGQRLEWMGWINAGYGNTQYSQNFQDRVSITRDTSASTAYMELISLRSEDTAVYYCAREPLWFGESSPHDYYGMDVWGQGTTVTVSS
VL: AIQLTQSPSSLSASVGDRVTITCRASQGISSALAWYQQKPGKAPKLLIYDASSLESGVPSRFSGSGSGTDFTLTISSLQPEDFATYYCQQFNSYPLTFGGGTKVEIK
notes: parental mAb

Kd (recombinant human IL-17 [4]): 0.0218 nM
koff (recombinant human IL-17 [4]): 1.8e-05 s⁻¹
kon (recombinant human IL-17 [4]): 824000 M⁻¹ s⁻¹
Neutralization Potency IC50 (GROα production by Hs27 cells) (recombinant human IL-17 [6]): 0.101 nM
B9: anti-IL-17 mAb (clone LY) (antibody, V domains shown)
VH: QVQLVQSGAEVKKPGSSVKVSCKASGYSFTDYHIHWVRQAPGQGLEWMGVINPMYGTTDYNQRFKGRVTITADESTSTAYMELSSLRSEDTAVYYCARYDYFTGTGVYWGQGTLVTVSS
VL: DIVMTQTPLSLSVTPGQPASISCRSSRSLVHSRGNTYLHWYLQKPGQSPQLLIYKVSNRFIGVPDRFSGSGSGTDFTLKISRVEAEDVGVYYCSQSTHLPFTFGQGTKLEIK
notes: parental mAb
